Legend:
[1] = tested on: IRS1 (insulin receptor substrate-1), species not stated

Substance	MG53-mediated substrate degradation, Western Blot, HEK293T co-expression (FIG. 16) [1]	degradation of IRβ, Western Blot, HEK293T co-expression (FIG. 16B) (insulin receptor IR)	degradation of precursor protein of IRβ, HEK293T co-expression (insulin receptor IR)	MG53-mediated substrate degradation, Western Blot, HEK293T co-expression (FIG. 17) [1]
mouse MG53-D-RING truncated mutant	human or mouse MG53-D-RING truncated mutant can hardly mediate IRS1 degradation	mouse MG53-D-RING truncated mutant and mouse MG53 S255A mutant can hardly mediate IRβ degradation	mouse MG53-D-RING truncated mutant and mouse MG53 S255A mutant almost completely inhibited MG53-mediated degradation	–
human MG53-D-RING truncated mutant	–	–	–	human or mouse MG53-D-RING truncated mutant can hardly mediate IRS1 degradation

From patent publication US20190153406
